Patent publication US7101851 (dated 2006)
Bridges are numbered along the chain shown (N, C = ends). Where no end group is shown, it is not given here. [ ]: non-standard residue; d: D form. Ava = NCCCCC(=O)O

B1: IGE183 (peptide)
peptide: VQCPHFCYDASRLCPDVCYV-NH2
modifications: disulfide (positions not given here); not fully specified (bridges); printed as VQCPHFCYDASRLCPDVCYV-nh2
B2: IGE197 (peptide)
peptide: VQCPDFCYDASRLCPDVCYV-NH2
modifications: disulfide 7-14, 3-18; N-terminus assumed
SMILES: CC(C)C[C@@H]1NC(=O)[C@H](CCCNC(=N)N)NC(=O)[C@H](CO)NC(=O)[C@H](C)NC(=O)[C@H](CC(=O)O)NC(=O)[C@H](Cc2ccc(O)cc2)NC(=O)[C@@H]2CSSC[C@H](NC1=O)C(=O)N1CCC[C@H]1C(=O)N[C@@H](CC(=O)O)C(=O)N[C@@H](C(C)C)C(=O)N[C@H](C(=O)N[C@@H](Cc1ccc(O)cc1)C(=O)N[C@H](C(N)=O)C(C)C)CSSC[C@H](NC(=O)[C@H](CCC(N)=O)NC(=O)[C@@H](N)C(C)C)C(=O)N1CCC[C@H]1C(=O)N[C@@H](CC(=O)O)C(=O)N[C@@H](Cc1ccccc1)C(=O)N2
B3: IGE196 (peptide)
peptide: VQCPHFCYDASELCPDVCYV-NH2
modifications: disulfide (positions not given here); not fully specified (bridges); printed as VQCPHFCYDASELCPDVCYV-nh2
B4: IGE203 (peptide)
peptide: VQCPKFCYE[Ava]CPDVCYV-NH2
modifications: disulfide (positions not given here); not fully specified (bridges); printed as VQCPKFCYEavaCPDVCYV-nh2; also: dimer
B5: IGE199 (peptide)
peptide: VQCPDFCY[Ava]LCPDVCYV-NH2
modifications: disulfide (positions not given here); not fully specified (bridges); printed as VQCPDFCYavaLCPDVCYV-nh2
B6: IGE198 (peptide)
peptide: VQCPHFCY[Ava]LCPDVCYV-NH2
modifications: disulfide (positions not given here); not fully specified (bridges); printed as VQCPHFCYavaLCPDVCYV-nh2
B7: IGE201 (peptide)
peptide: VQCPDFCY[Ava]LCPDQCYV-NH2
modifications: disulfide (positions not given here); not fully specified (bridges); printed as VQCPDFCYavaLCPDQCYV-nh2
B8: IGE200 (peptide)
peptide: VQCPKFCY[Ava]LCPDVCYV-NH2
modifications: disulfide (positions not given here); not fully specified (bridges); printed as VQCPKFCYavaLCPDVCYV-nh2
B9: IGE168 (peptide)
peptide: Ac-VQCPHFCYFGAELCPDVCYV-NH2
modifications: disulfide 7-14, 3-18
SMILES: CC(=O)N[C@H](C(=O)N[C@@H](CCC(N)=O)C(=O)N[C@H]1CSSC[C@@H](C(=O)N[C@@H](Cc2ccc(O)cc2)C(=O)N[C@H](C(N)=O)C(C)C)NC(=O)[C@H](C(C)C)NC(=O)[C@H](CC(=O)O)NC(=O)[C@@H]2CCCN2C(=O)[C@@H]2CSSC[C@H](NC(=O)[C@H](Cc3ccccc3)NC(=O)[C@H](Cc3c[nH]cn3)NC(=O)[C@@H]3CCCN3C1=O)C(=O)N[C@@H](Cc1ccc(O)cc1)C(=O)N[C@@H](Cc1ccccc1)C(=O)NCC(=O)N[C@@H](C)C(=O)N[C@@H](CCC(=O)O)C(=O)N[C@@H](CC(C)C)C(=O)N2)C(C)C
B10: IGE187 (peptide)
peptide: VQCPHFCYE[Ava]ELCPDVCYV-NH2
modifications: disulfide (positions not given here); not fully specified (bridges); printed as VQCPHFCYEavaELCPDVCYV-nh2
B11: IGE185 (peptide)
peptide: VQCPHFCYAEPLCPDVCYV-NH2
modifications: disulfide 7-13, 3-17; N-terminus assumed
SMILES: CC(C)C[C@@H]1NC(=O)[C@@H]2CCCN2C(=O)[C@H](CCC(=O)O)NC(=O)[C@H](C)NC(=O)[C@H](Cc2ccc(O)cc2)NC(=O)[C@@H]2CSSC[C@H](NC1=O)C(=O)N1CCC[C@H]1C(=O)N[C@@H](CC(=O)O)C(=O)N[C@@H](C(C)C)C(=O)N[C@H](C(=O)N[C@@H](Cc1ccc(O)cc1)C(=O)N[C@H](C(N)=O)C(C)C)CSSC[C@H](NC(=O)[C@H](CCC(N)=O)NC(=O)[C@@H](N)C(C)C)C(=O)N1CCC[C@H]1C(=O)N[C@@H](Cc1c[nH]cn1)C(=O)N[C@@H](Cc1ccccc1)C(=O)N2
B12: IGE202 (peptide)
peptide: VQCPDFCY[Ava]CPDVCYV-NH2
modifications: disulfide (positions not given here); not fully specified (bridges); printed as VQCPDFCYavaCPDVCYV-nh2
B13: IGE184 (peptide)
peptide: VQCPHFCYDYELCPDVCYV-NH2
modifications: disulfide 7-13, 3-17; N-terminus assumed
SMILES: CC(C)C[C@@H]1NC(=O)[C@H](CCC(=O)O)NC(=O)[C@H](Cc2ccc(O)cc2)NC(=O)[C@H](CC(=O)O)NC(=O)[C@H](Cc2ccc(O)cc2)NC(=O)[C@@H]2CSSC[C@H](NC1=O)C(=O)N1CCC[C@H]1C(=O)N[C@@H](CC(=O)O)C(=O)N[C@@H](C(C)C)C(=O)N[C@H](C(=O)N[C@@H](Cc1ccc(O)cc1)C(=O)N[C@H](C(N)=O)C(C)C)CSSC[C@H](NC(=O)[C@H](CCC(N)=O)NC(=O)[C@@H](N)C(C)C)C(=O)N1CCC[C@H]1C(=O)N[C@@H](Cc1c[nH]cn1)C(=O)N[C@@H](Cc1ccccc1)C(=O)N2

Biological target: T1, alpha subunit of the human FcεRI receptor expressed on Chinese hamster ovary cells (human, UniProt P12319 26-257)
T1 construct: whole, on cells; also called CHO FcεRI+ cells
T1 sequence (looked up): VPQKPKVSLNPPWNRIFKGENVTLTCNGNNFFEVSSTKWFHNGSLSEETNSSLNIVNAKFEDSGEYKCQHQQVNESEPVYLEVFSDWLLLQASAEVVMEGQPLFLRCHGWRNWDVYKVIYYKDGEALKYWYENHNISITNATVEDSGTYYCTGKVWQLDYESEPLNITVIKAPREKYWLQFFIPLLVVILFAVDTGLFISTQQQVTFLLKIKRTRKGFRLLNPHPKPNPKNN
Test: inhibition of 125I-IgE binding to CHO cells expressing human FcεRI alpha subunit
Procedure: (§1) To determine the ability of peptides to inhibit IgE binding to FcεRI, a cell-based binding assay was used with radiolabeled IgE. Chinese hamster ovary cells expressing the alpha subunit of the human FcεRI receptor were cultured overnight in Falcon 96 well microtiter plates at a concentration of 5 ×10^4 cells per well. The following day the cells were rinsed three times with PBS and then once with F12/DMEM. Peptide stocks were reconstituted in 100 mM Hepes buffered water, pH 7.2, at a concentration of 5 mg/mL. Working concentrations of the peptide were diluted in assay buffer (see below). 75 uL of a desired concentration of peptide was added to the top row of a separate 96 well microtiter plate and serially diluted 1:3 in 50 uL of the assay buffer (F12/DMEM, 1% BSA, 0.05% NaN_3 and 0.025 mM Hepes pH 7.2). Starting concentrations ranged from 50–500 uM. Next, 50 uL of the diluted peptide was transferred to the 96 microtiter well plate containing a monolayer of CHO FcεRI+ cells. […] Cells were […]

Compared with Ac-CTEGPWGWFCI-NH2 (disulfide 1-10 (inferred), synthetic) [IGE046], CLEGPWGWFCI-NH2 (disulfide 1-10 (inferred), synthetic) [IGE045] is 1.8-fold lower in IC50: 549000 nM for the first, 300000 nM for the second. The second is the more potent here.

Compared with Ac-CLEGPWGWFCI-NH2 (disulfide 1-10 (inferred), synthetic) [IGE044], Ac-CLEGPWGWVCI-NH2 (disulfide 1-10 (inferred), synthetic) [IGE080] is 2.1-fold higher in IC50: 194000 nM for the first, 410000 nM for the second. The first is the more potent here.

Compared with CTEGPWGWFCI-NH2 (disulfide 1-10 (inferred), synthetic) [IGE047], Ac-NLPRCTEGPWGWVCMAAD-NH2 (disulfide 5-14 (inferred), synthetic) [IGE042] is 490-fold lower in IC50: 741000 nM for the first, 1500 nM for the second. The second is the more potent here.

In the case of Ac-NLPRCTEGPWGWVCMADD-NH2 (disulfide 5-14 (inferred), synthetic) [IGE031], the IC50 is reported as 1100 nM.

Biological target: T2, alpha subunit of the human FcεRI receptor (IgE high affinity receptor), expressed on Chinese hamster ovary … (human, UniProt P12319 26-257)
T2 construct: whole, on cells; also called CHO FcεRI+ cells; FcεRIα
T2 sequence (looked up): T1 sequence (looked up)
Test: inhibition of 125I-IgE binding to CHO cells expressing human FcεRI alpha; competitor IgE
Procedure: as §1

Compared with Ac-CPHFCYFGAELCPDVCY-NH2 (not fully specified (bridges); cysteine pairing not given here) [IGE171], B1 is 9.7-fold lower in IC50: 290 nM for the first, 30 nM for the second. The second is the more potent here.

B2 and B3 are within 1.5-fold of each other in IC50: 120 nM for the first, 90 nM for the second.

First: B4
Second: VQCPHFCYELDYEAGDERLCPDVCYV-NH2 (disulfide (positions not given here); also: two disulfides, pairing not settled) [IGE189]
The IC50 of the first is 86-fold higher: 12900 nM for the first, 150 nM for the second. The second is the more potent here.

B5 and B6 are within 1.5-fold of each other in IC50: 6670 nM for the first, 7800 nM for the second.

B7 and B8 are within 1.5-fold of each other in IC50: 14600 nM for the first, 11700 nM for the second.

CPHFCYFGAELCPDVCY-NH2 (not fully specified (bridges); cysteine pairing not given here) [IGE170] and VQCPHFCYEL[Ava]ELCPDVCYV-NH2 (disulfide 7-14, 3-18) [IGE186] are within 1.5-fold of each other in IC50: 200 nM for the first, 180 nM for the second.

Ac-VQCPHFCYELDYELCPDVCYV-NH2 (not fully specified (bridges); cysteine pairing not given here) [IGE179] and B9 are within 1.5-fold of each other in IC50: 220 nM for the first, 260 nM for the second.

B10 and VQCPHFCYELFSRLCPDVCYV-NH2 (disulfide (positions not given here); also: two disulfides, pairing not settled) [IGE182] are within 1.5-fold of each other in IC50: 90 nM for the first, 80 nM for the second.

First: B11
Second: B12
The IC50 of the first is 1700-fold lower: 76 nM for the first, 132000 nM for the second.

Going from VQCPHFCYELDYEADRLCPDVCYV-NH2 (disulfide (positions not given here); also: two disulfides, pairing not settled) [IGE188] to B13, the IC50 falls from 980 nM to 110 nM (8.9-fold).
